1 substance from publication PMC8918821 can be followed below.

The target of assay [1] is cardiac sodium channel NaV1.5 α subunit of human origin (adult isoform) (human) (UniProt Q14524).
Assay [2] has the same target. This is another data set of the same source.
For assay [3] the target is unchanged. This is another data set of the same source.

Sequence of UniProt Q14524 (Q14524 whole entry, canonical isoform): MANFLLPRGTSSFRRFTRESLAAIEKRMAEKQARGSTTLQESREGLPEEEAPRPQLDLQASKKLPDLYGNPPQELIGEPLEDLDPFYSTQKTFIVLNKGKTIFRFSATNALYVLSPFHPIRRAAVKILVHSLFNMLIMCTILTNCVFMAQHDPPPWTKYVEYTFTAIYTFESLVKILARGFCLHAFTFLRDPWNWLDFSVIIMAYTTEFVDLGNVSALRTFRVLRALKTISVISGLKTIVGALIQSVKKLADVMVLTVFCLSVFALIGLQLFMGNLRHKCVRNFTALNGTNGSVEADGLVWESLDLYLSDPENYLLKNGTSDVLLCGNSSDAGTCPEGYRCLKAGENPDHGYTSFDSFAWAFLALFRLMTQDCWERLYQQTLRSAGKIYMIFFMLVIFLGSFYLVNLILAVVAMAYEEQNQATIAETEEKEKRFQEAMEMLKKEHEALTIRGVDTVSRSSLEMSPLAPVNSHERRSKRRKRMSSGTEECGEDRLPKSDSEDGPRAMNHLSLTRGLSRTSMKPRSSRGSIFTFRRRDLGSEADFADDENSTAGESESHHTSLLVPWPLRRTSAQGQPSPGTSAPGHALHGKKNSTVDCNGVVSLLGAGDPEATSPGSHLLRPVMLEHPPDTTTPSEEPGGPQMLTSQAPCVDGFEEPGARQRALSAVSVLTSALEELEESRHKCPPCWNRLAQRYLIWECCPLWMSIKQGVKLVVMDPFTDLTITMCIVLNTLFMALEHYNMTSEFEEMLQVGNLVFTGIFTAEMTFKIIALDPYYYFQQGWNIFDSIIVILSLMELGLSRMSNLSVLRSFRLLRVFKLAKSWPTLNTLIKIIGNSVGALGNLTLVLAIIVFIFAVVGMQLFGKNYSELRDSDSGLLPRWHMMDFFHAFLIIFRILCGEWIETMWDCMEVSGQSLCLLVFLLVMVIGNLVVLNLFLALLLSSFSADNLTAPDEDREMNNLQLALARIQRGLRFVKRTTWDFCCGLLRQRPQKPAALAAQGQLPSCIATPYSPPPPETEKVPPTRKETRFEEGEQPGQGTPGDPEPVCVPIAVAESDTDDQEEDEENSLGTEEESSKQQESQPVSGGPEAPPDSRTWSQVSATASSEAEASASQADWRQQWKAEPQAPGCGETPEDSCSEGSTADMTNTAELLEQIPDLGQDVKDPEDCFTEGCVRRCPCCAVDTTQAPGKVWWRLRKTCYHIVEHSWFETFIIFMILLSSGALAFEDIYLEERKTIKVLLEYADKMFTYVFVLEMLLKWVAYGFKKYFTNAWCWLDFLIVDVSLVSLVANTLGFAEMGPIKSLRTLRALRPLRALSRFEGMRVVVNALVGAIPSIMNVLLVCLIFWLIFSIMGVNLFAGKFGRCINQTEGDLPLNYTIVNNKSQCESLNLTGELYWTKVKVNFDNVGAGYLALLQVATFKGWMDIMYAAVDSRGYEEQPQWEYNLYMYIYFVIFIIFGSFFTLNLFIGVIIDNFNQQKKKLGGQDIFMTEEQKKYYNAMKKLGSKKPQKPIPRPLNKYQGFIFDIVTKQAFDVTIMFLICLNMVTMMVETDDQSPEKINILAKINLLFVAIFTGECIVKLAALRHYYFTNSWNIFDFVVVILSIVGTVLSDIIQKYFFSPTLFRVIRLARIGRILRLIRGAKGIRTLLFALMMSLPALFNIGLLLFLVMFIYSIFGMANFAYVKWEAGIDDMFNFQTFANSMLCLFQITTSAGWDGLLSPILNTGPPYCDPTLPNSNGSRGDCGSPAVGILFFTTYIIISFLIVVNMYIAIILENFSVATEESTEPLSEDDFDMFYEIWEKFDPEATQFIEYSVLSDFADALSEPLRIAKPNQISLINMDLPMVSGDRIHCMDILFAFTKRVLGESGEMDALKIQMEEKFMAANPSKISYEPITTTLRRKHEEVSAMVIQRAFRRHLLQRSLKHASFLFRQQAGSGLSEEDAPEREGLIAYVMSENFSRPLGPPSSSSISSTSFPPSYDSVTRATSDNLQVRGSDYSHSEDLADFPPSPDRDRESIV

As to “AahII toxin from Androctonus australis Hector (from UniProt P01484 20-85) (natural protein)”, in assay [1], the whole-cell patch clamp on HEK293 cells expressing NaV1.5: factor by which inactivation is slowed against control, [AahII] 75, 150 and 300 nM was 35 fold; the whole-cell patch clamp: inactivation time constant (tau) of NaV1.5 after washout of AahII (75 nM) with control solution stood at 5.2 ms. Besides, in assay [2], the whole-cell patch clamp: tau of NaV1.5 after AahII 75 nM for 7 min followed by 75 nM Nb10 alone until 14 min was found to be 4.6 and the whole-cell patch clamp: tau of NaV1.5 with AahII 75 nM perfused for 7 min, before Nb10 alone turned out to be 9.6 ms. In addition, the whole-cell patch clamp: tau of NaV1.5 after AahII 75 nM for 7 min followed by 75 nM AahII + 75 nM Nb10 (1:1) up to 14 min in assay [3] is 4.7 ms.
